For the data set the following is noted: Aspergillus oryzae (strain ATCC 42149 / RIB 40), GdnHCl, Fluorescence, reversible: yes, whole UniProt chain shown.
Where [1] appears, read: pH 5, 10 °C, Sodium acetate 0.1 M.
[2] abbreviates: pH 5, 25 °C, Sodium acetate 0.1 M.

B1: Guanyl-specific ribonuclease T1 wild type, P00651 (protein)
chain: MMYSKLLTLTTLLLPTALALPSLVERACDYTCGSNCYSSSDVSTAQAAGYQLHEDGETVGSNSYPHKYNNYEGFDFSVSSPYYEWPILSSGDVYSGGSPGADRVVFNENNQLAGVITHTGASGNNFVECT
On to B1, for which the denaturant m value was determined as 2.49 kcal/mol/M under setting [1]; 2.75 kcal/mol/M under setting [2]; 2.63 kcal/mol/M (pH 8, 10 °C, PIPES 0.1 M); 2.46 kcal/mol/M (pH 8, 25 °C, PIPES 0.1 M). The “denaturant midpoint (higher = more stable)” value is, setting by setting: under setting [1], 3.94 M; under setting [2], 3.63 M; (pH 8, 10 °C, PIPES 0.1 M) 3.21 M; (pH 8, 25 °C, PIPES 0.1 M) 2.4 M.

(Values after FireProtDB (doi:10.1111/j.1432-1033.1996.00516.x).)
